Consider 1 protein from patent US5798442A, “Peptidyl derivatives as inhibitors of pro-apoptotic cysteine proteinases” (Merck Frosst Canada, Inc., priority 1995, dated 1998).

The term Km denotes the substrate concentration at which the rate is half of its maximum.

Substrate in the data set: CC(=O)N[C@@H](CC(=O)O)C(=O)N[C@@H](CCC(=O)O)C(=O)N[C@H](C(=O)N[C@@H](CC(=O)O)C(=O)Nc1ccc2c(C)cc(=O)oc2c1)C(C)C
The experiment in a line: continuous fluorometric assay with Ac-DEVD-AMC and purified apopain. It counts as biochemical, human. Conditions: other: purified apopain, 25° C., pH 7.5.

B1: apopain/CPP32 (Homo sapiens) (protein)
chain 1: SGISLDNSYKMDYPEMGLCIIINNKNFHKSTGMTSRSGTDVDAANLRETFRNLKYEVRNKNDLTREEIVELMRDVSKEDHSKRSSFVCVLLSHGEEGIIFGTNGPVDLKKITNFFRGDRCRSLTGKPKLFIIQACRGTELDCGIETD
chain 2: SGVDDDMACHKIPVEADFLYAYSTAPGYYSWRNSKDGSWFIQSLCAMLKQYADKLEFMHILTRVNRKVATEFESFSFDATFHAKKQIPCIVSMLTKELYFYH
notes: cleavage between Asp^28 -Ser^29 and Asp^175 -Ser^176; cleavage sites which yield the p17 and p12 subunits from the CPP32 proenzyme; endogenous in cells; host or cells: THP-1 cells (ATCC TIB 202)
Take B1: the Km came to 9.7 ± 1.0 µM.
